The values that follow come from PMC4002113, “The p97-FAF1 Protein Complex Reveals a Common Mode of p97 Adaptor Binding*” (The Journal of Biological Chemistry, 2014).

Data set [1] concerns the molecule itself. As to the kind of experiment: native MS; full-length FAF1 at 10 μM in 200 mM ammonium acetate pH 7.5; Q-ToF modified for high mass detection.
For data set [2], the target named is T1, C-terminally His-tagged full-length p97 (residues 1–806) (murine, UniProt Q01853 1-806).
T1 construct: p97 (VCP), murine, full length, residues 1–806, in PET22b; Hexamer, with a minor dodecamer, by SV-AUC; also called VCP; valosin-containing protein
Description: ITC; full-length p97 in the cell at 10–50 μM, FAF1 or FAF1 truncation as titrant at 7.5 to 10 times the cell concentration; 20 mM HEPES, 150 mM KCl, pH 7.4; 30 °C; average of two measurements. The note with it: both partners purified. Background: ITC needs no label: the signal is the heat of the interaction.

The target in data set [3] is T1, C-terminally His-tagged full-length p97 …. As to the kind of experiment: MST; 0.06 μM dye-labelled FAF1 kept constant, full-length p97 titrated between 135 and 0.0041 μM; 20 mM HEPES, 150 mM KCl, pH 7.4; 30 °C; average of two experiments, Hill equation fit. The conditions noted are these: both partners purified.
Data set [4] concerns the molecule itself. Description: cross-linking; 15 μM FAF1 or truncation in SEC buffer with ethyl glycol bissuccinimidyl succinate (EGS), 15 min at room temperature, stopped with Tris, SDS-PAGE.

Values joined by “and” are separate entries in the source; they are usually repeats but may differ in a detail not shown here. Equal entries are not always repeated.

T1 sequence (Q01853 whole entry, the tested form may be a part): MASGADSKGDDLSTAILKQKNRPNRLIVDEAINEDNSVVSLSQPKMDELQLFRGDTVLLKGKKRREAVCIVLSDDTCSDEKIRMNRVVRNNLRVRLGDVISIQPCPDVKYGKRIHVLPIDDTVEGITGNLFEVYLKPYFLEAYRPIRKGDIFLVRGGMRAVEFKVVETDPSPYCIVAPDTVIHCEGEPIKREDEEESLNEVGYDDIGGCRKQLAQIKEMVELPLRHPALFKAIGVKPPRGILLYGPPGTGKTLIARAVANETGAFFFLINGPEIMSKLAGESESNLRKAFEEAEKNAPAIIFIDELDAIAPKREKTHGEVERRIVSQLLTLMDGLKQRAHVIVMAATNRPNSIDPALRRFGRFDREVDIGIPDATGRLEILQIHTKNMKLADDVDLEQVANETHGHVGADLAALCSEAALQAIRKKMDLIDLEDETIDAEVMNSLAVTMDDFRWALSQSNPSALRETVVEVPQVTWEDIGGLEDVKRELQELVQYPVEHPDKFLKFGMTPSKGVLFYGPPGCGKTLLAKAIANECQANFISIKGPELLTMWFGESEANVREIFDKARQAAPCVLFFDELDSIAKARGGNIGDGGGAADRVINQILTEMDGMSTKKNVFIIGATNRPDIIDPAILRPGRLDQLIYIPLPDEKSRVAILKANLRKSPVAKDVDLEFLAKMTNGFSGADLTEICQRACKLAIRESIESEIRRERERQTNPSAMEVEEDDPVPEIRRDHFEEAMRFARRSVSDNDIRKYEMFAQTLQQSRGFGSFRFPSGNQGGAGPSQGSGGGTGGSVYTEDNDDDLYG

B1: N-terminally His-tagged full-length FAF1 (natural protein, murine, UniProt P54731 1-649, looked up)
chain: MASNMDREMILADFQACTGIENIDEAITLLEQNNWDLVAAINGVIPQENGILQSDFGGETMPGPTFDPASHPAPASTPSSSAFRPVMPSRQIVERQPRMLDFRVEYRDRNVDVVLEDSCTVGEIKQILENELQIPVPKMLLKGWKTGDVEDSTVLKSLHLPKNNSLYVLTPDLPPPSSSSHAGALQESLNQNFMLIITHREVQREYNLNFSGSSTVQEVKRNVYDLTSIPVRHQLWEGWPASATDDSMCLAESGLSYPCHRLTVGRRTSPVQTREQSEEQSTDVHMVSDSDGDDFEDASEFGVDDGEVFGMASSTLRKSPMMPENAENEGDALLQFTAEFSSRYGDCHPVFFIGSLEAAFQEAFYVKARDRKLLAIYLHHDESVLTNVFCSQMLCAESIVSYLSQNFITWAWDLTKDTNRARFLTMCNRHFGSVIAQTIRTQKTDQFPLFLIIMGKRSSNEVLNVIQGNTTVDELMMRLMAAMEIFSAQQQEDIKDEDEREARENVKREQDEAYRLSLEADRAKREAHEREMAEQFRLEQIRKEQEEEREAIRLSLEQALPPEPKEENAEPVSKLRIRTPSGEFLERRFLASNKLQIVFDFVASKGFPWDEFKLLSTFPRRDVTQLDPNKSLLEVNLFPQETLFLQAKE
modifications: NanoTemper495-N-hydroxysuccinimide blue/red dye label (in the MST only)
notes: Fas-associated factor 1 (FAF1), full length, in pProEx; the truncations end at residue 649; N-terminally His-tagged FAF1 was used for all experiments except nanogold labelling; also called Fas-associated factor 1; His-tagged FAF1; source: held on the nickel column from cleared lysate in the pull-down; not shown: His tag, N-terminal, kept
Regarding B1, the “stoichiometry N” value in data set [1] is 2 and 3. For the same molecule, in data set [2], the “KD site 1 (two-site model)” value is 0.8 µM, the “KD site 2 (two-site model)” value turned out to be 19 µM, the equilibrium dissociation constant (Kd) is 5.2 µM and the “stoichiometry N” value came to 0.8 ± 0.03 FAF1 per p97. In addition, the Kd in data set [3] came out at 0.13 µM.

B2: FAF1-CC-UBX(491–649) (domain or fragment, murine, UniProt P54731 491-649, looked up)
chain: QEDIKDEDEREARENVKREQDEAYRLSLEADRAKREAHEREMAEQFRLEQIRKEQEEEREAIRLSLEQALPPEPKEENAEPVSKLRIRTPSGEFLERRFLASNKLQIVFDFVASKGFPWDEFKLLSTFPRRDVTQLDPNKSLLEVNLFPQETLFLQAKE
notes: Fas-associated factor 1 (FAF1), residues 491–649 (coiled-coil and UBX domains), in pGEx; also called coiled-coil and UBX domains of FAF1; source: E. coli Rosetta 2 (autoinduction), purified (GSTrap, GST cleaved with HRV 3C, size-exclusion chromatography)
Regarding B2, in data set [2], the “KD site 1 (two-site model)” value came to 0.7 µM, the “KD site 2 (two-site model)” value was 12 µM, the Kd stood at 4.9 µM and the “stoichiometry N” value amounted to 0.89 ± 0.3 FAF1-CC-UBX per p97. The “stoichiometry N” value in data set [4] was determined as 3.

B3: FAF1-UBX(550–649) (domain or fragment, murine, UniProt P54731 550-649, looked up)
chain: EAIRLSLEQALPPEPKEENAEPVSKLRIRTPSGEFLERRFLASNKLQIVFDFVASKGFPWDEFKLLSTFPRRDVTQLDPNKSLLEVNLFPQETLFLQAKE
notes: Fas-associated factor 1 (FAF1), residues 550–649 (UBX domain), in pGEx; also called UBX domain of FAF1; source: E. coli Rosetta 2 (autoinduction), purified (GSTrap, GST cleaved with HRV 3C, size-exclusion chromatography)
Turning to B3, in data set [2], binding was put at a Kd of 3.9 µM and the “stoichiometry N” value was determined as 0.98 ± 0.1 FAF1-UBX per p97.

As usually defined, the stoichiometry N is a count of units in the complex or per binding partner. One may read the Kd as the equilibrium constant for the complex coming apart. A lower Kd goes with tighter binding.
